Test results from patent publication US20210122826A1.

Columns and labels:
Human Clec9A (human) = Human Clec9A (human) (UniProt Q6UXN8); experiment: flow, Jurkat, 100 nM Ab
Human KLRF2 (human) = Human KLRF2 (human) (UniProt D3W0D1); experiment: flow, Jurkat, 100 nM Ab
human CD161 (human) [1] = target: human CD161 (human) (UniProt Q12918); experiment: flow, Jurkat, 100 nM Ab
Human KLRG1 (human) = Human KLRG1 (human) (UniProt Q96E93); experiment: flow, Jurkat, 100 nM Ab
[2] = target: cynomolgus CD161 (cynomolgus); experiment: flow, Jurkat, 100 nM Ab
Human Clec12B (human) = Human Clec12B (human) (UniProt Q2HXU8); experiment: flow, Jurkat, 100 nM Ab
Human KLRF1 (human) = Human KLRF1 (human) (UniProt Q9NZS2); experiment: flow, Jurkat, 100 nM Ab
Human CD209 (human) = Human CD209 (human) (UniProt Q9NNX6); experiment: flow, Jurkat, 100 nM Ab
Human CD94 (human) = Human CD94 (human) (UniProt Q13241); experiment: flow, Jurkat, 100 nM Ab
Human OLR1 (human) = Human OLR1 (human) (UniProt P78380); experiment: flow, Jurkat, 100 nM Ab
Human Clec5A (human) = Human Clec5A (human) (UniProt Q9NY25); experiment: flow, Jurkat, 100 nM Ab
Human Clec7A (human) = Human Clec7A (human) (UniProt Q9BXN2); experiment: flow, Jurkat, 100 nM Ab
Human Clec4E (human) = Human Clec4E (human) (UniProt Q9ULY5); experiment: flow, Jurkat, 100 nM Ab
Human Clec10A (human) = Human Clec10A (human) (UniProt Q8IUN9); experiment: flow, Jurkat, 100 nM Ab
human CD161 (human) [3] = target: human CD161 (human) (UniProt Q12918); experiment: flow cytometry titration of antibody on Jurkat hCD161+ cells, fluorescent secondary antibody, MFI against Ab concentration (log [M])
human CD161 (human) [4] = target: human CD161 (human) (UniProt Q12918); experiment: flow, Jurkat, Ab titration
[5] = target: cynomolgus CD161 (cynomolgus); experiment: flow, Jurkat, Ab titration
[6] = target: cynomolgus CD161 (cynomolgus); experiment: flow cytometry titration of antibody on Jurkat cynoCD161+ cells, fluorescent secondary antibody, MFI against concentration (log [M])

Chain of cynomolgus CD161 (cynomolgus) (chain, as listed by the source limits assumed): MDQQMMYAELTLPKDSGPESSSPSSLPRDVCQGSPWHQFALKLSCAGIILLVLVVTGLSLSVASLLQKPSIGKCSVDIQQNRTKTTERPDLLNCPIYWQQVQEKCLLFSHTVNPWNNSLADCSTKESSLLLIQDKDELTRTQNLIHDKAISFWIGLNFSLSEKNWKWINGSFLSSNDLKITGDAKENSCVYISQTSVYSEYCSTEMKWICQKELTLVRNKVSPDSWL
Chain of Human KLRF2 (human) (D3W0D1 whole entry): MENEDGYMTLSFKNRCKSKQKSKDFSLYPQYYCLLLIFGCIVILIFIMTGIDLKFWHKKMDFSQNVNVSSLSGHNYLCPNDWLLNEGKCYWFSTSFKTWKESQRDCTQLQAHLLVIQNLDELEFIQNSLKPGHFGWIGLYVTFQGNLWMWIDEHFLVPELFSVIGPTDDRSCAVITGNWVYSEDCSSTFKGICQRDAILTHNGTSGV
Chain of Human Clec5A (human) (Q9NY25 whole entry): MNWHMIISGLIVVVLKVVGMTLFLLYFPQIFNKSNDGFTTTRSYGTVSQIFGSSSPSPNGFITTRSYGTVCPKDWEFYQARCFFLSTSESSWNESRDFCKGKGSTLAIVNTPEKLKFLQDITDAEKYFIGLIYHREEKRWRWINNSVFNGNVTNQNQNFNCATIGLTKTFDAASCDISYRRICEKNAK
Chain of Human Clec7A (human) (Q9BXN2 whole entry): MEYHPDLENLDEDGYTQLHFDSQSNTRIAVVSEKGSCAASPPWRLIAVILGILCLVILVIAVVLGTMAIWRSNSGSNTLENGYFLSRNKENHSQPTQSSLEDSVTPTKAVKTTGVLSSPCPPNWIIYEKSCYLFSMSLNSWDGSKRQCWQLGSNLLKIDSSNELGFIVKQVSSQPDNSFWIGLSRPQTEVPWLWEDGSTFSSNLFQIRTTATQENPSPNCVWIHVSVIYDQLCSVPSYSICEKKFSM
Chain of Human KLRF1 (human) (Q9NZS2 whole entry): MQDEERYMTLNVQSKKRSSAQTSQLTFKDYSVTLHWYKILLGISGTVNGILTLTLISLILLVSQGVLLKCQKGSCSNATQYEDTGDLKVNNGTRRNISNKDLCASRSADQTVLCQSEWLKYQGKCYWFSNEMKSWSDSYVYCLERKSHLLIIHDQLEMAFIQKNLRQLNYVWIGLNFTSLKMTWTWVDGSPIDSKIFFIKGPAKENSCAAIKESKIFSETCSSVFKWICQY
Chain of Human CD94 (human) (Q13241 whole entry): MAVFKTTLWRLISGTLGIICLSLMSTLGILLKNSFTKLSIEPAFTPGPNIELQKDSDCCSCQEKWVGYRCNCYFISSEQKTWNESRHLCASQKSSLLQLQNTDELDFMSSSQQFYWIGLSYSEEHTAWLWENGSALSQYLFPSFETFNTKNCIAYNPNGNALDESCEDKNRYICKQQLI
Chain of Human Clec9A (human) (Q6UXN8 whole entry): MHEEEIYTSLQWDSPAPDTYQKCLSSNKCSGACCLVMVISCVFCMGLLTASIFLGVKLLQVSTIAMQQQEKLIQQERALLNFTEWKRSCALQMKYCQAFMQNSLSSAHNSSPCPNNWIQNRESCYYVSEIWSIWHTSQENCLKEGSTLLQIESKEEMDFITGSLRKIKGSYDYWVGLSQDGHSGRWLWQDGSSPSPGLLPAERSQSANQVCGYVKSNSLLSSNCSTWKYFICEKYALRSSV
Chain of Human CD209 (human) (Q9NNX6 whole entry): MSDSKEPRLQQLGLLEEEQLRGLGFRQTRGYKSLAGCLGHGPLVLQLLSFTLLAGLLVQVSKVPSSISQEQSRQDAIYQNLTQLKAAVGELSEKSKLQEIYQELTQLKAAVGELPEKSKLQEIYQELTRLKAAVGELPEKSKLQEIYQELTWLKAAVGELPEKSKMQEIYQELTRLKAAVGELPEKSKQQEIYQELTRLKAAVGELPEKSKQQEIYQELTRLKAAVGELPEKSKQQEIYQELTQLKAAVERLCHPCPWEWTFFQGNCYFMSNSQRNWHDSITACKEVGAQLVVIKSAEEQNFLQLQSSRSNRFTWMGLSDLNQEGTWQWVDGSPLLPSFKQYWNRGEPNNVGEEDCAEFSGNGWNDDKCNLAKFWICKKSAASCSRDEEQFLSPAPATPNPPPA
Chain of Human Clec4E (human) (Q9ULY5 whole entry): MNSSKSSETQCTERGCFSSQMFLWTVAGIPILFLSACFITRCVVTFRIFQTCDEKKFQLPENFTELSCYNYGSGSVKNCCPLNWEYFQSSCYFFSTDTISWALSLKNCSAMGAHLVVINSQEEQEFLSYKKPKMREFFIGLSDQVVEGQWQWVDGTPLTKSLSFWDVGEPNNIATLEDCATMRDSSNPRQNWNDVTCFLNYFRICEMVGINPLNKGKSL
Chain of Human Clec12B (human) (Q2HXU8 whole entry): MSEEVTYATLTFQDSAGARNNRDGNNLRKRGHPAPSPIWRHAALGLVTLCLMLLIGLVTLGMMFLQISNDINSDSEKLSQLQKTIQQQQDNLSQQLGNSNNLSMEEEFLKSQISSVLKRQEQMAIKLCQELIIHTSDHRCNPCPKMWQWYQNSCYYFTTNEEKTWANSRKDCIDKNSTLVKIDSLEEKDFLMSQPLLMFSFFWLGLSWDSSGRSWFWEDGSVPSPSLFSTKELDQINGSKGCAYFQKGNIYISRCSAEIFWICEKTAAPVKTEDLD
Chain of Human Clec10A (human) (Q8IUN9 whole entry): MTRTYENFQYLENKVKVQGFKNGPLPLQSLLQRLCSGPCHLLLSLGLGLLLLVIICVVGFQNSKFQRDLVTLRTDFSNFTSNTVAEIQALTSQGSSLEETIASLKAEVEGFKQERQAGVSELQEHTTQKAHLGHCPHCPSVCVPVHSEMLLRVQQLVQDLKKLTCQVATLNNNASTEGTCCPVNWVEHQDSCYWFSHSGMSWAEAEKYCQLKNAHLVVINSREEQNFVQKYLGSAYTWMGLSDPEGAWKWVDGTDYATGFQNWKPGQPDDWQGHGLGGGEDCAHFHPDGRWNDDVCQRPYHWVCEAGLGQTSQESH
Chain of Human KLRG1 (human) (Q96E93 whole entry): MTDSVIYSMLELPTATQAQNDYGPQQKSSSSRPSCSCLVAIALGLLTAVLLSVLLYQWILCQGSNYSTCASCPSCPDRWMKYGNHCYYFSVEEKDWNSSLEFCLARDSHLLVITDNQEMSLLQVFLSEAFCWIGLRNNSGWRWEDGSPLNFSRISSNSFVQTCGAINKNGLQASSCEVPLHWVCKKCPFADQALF

MFI normalized to WT (Human Clec9A (human)): 1.09
MFI normalized to WT (Human KLRF2 (human)): 1.07
MFI normalized to WT (human CD161 (human) [1]): 75.2
MFI normalized to WT (Human KLRG1 (human)): 1.07
MFI normalized to WT [2]: 46.7
MFI normalized to WT (Human Clec12B (human)): 1.1
MFI normalized to WT (Human KLRF1 (human)): 0.94
MFI normalized to WT (Human CD209 (human)): 1.01
MFI normalized to WT (Human CD94 (human)): 1
MFI normalized to WT (Human OLR1 (human)): 1.01
MFI normalized to WT (Human Clec5A (human)): 1.08
MFI normalized to WT (Human Clec7A (human)): 1.16
MFI normalized to WT (Human Clec4E (human)): 1
MFI normalized to WT (Human Clec10A (human)): 1
EC50 (read off the curve) (human CD161 (human) [3]): 2 nM
Kd (human CD161 (human) [4]): 1.67 nM
Kd [5]: 1.18 nM
EC50 (read off the curve) [6]: 1 nM
Substance: mouse anti-human CD161 antibody HP-3G10
